{
  "source": "paper PMC3281842",
  "about": "“Crystal Structure of TDRD3 and Methyl-Arginine Binding Characterization of TDRD3, SMN and SPF30” (PLoS ONE, 2012)",
  "key": {"H3R17me2a": {"biological_target": "H3R17me2a", "assay": "ITC; 20 mM Tris pH 8.0, 200 mM NaCl; 25°C; one-site binding model"}, "H3R2me2a": {"biological_target": "H3R2me2a", "assay": "fluorescence polarisation; fluorescein-labeled peptides; 20 mM Tris pH 7.5, 50 mM NaCl, 1 mM DTT, 0.01% Triton X-100; 25°C; one-site binding model; Kd the average of three independent measurements"}, "H3R2me2s": {"biological_target": "H3R2me2s", "assay": "fluorescence polarisation; fluorescein-labeled peptides; 20 mM Tris pH 7.5, 50 mM NaCl, 1 mM DTT, 0.01% Triton X-100; 25°C; one-site binding model; Kd the average of three independent measurements"}, "[1]": {"biological_target": "PIWIL1-R4me2s (Homo sapiens) (UniProt Q96J94)", "conditions": "cited from earlier work"}, "[2]": {"biological_target": "PIWIL1-R4me1 (Homo sapiens) (UniProt Q96J94)", "conditions": "cited from earlier work"}, "[3]": {"biological_target": "PIWIL1-R4me2a (Homo sapiens) (UniProt Q96J94)", "conditions": "cited from earlier work"}},
  "data": [
    {"substance": "TDRD3 (aa 520–633) (from UniProt Q9H7E2 520-633) (domain or fragment)", "values": [
      {"measurement": "Kd", "setting": "H3R17me2a", "value": "> 1000", "unit": "µM"},
      {"measurement": "Kd", "setting": "H3R2me2a", "value": "> 500", "unit": "µM"},
      {"measurement": "Kd", "setting": "H3R2me2s", "value": "> 500", "unit": "µM"}
    ]},
    {"substance": "SND1 650-910 (from UniProt Q7KZF4)", "values": [
      {"measurement": "Kd", "setting": "[1]", "value": 10, "unit": "µM"},
      {"measurement": "Kd", "setting": "[2]", "value": 19, "unit": "µM"},
      {"measurement": "Kd", "setting": "[3]", "value": 42, "unit": "µM"}
    ]}
  ]
}
